Data taken from PMC4419694.
One block for each substance: values may come before it.

What was measured:
Test in all cases: AUC
[1] = molecular target: SSBΔ120-166 (E. coli)
[2] = molecular target: SSBΔ130-166 (E. coli)
[3] = molecular target: SSBΔ151-166 (E. coli)
[4] = molecular target: SSBΔC8 (E. coli)

- stoichiometry N [1]: 4
Substance: SSBΔ120-166 (natural protein)

- stoichiometry N [2]: 4
Substance: SSBΔ130-166 (natural protein)

- stoichiometry N [3]: 4
Substance: SSBΔ151-166 (natural protein)

- stoichiometry N [4]: 4
Substance: SSBΔC8 (domain or fragment)
